{"source": "patent US20040161776A1", "about": "(PSMA DEVELOPMENT, published 2004)", "binders": {"B1": {"name": "225Ac labeled mAb 026 (antibody, human IgG1, V domains shown)", "VH": "QVQLVESGGGVVQPGRSLRLSCAASGFTFSNYVMHWVRQAPGKGLEWVAIIWYDGSNKYYADSVKGRFTISRDNSKNTLYLQMNSLRAEDTAVYYCAGGYNWNYEYHYYGMDVWGQGTTVTVSS", "VL": "DIQMTQSPSSLSASVGDRVTITCRASQGITNYLAWFQQKPGKAPKSLIYAASSLQSGVPSKFSGSGSGTDFSLTISSLQPEDFATYYCQQYNSYPITFGQGTRLEIK", "modifications": "225Ac chelated by bifunctional DOTA conjugated to the antibody, sites not stated"}, "B2": {"name": "006 (antibody, V domains shown)", "VH": "QVQLVESGGGVVQPGRSLRLSCAASGFAFSRYGMHWVRQAPGKGLEWVAVIWYDGSNKYYADSVKGRFTISRDNSKNTQYLQMNSLRAEDTAVYYCARGGDFLYYYYYGMDVWGQGTTVTVSS", "VL": "DIQMTQSPSSLSASVGDRVTITCRASQGISNYLAWYQQKTGKVPKFLIYEASTLQSGVPSRFSGGGSGTDFTLTISSLQPEDVATYYCQNYNSAPFTFGPGTKVDIK"}, "B3": {"name": "026 (antibody, V domains shown)", "VH": "B1 VH", "VL": "B1 VL"}, "B4": {"name": "PSMA 10.3 (antibody, V domains shown)", "VH": "QEQLVESGGGVVQPGRSLRLSCAASGFTFSTYGMHWVRQAPGKGLEWVAVTWHDGSNKYYADSVKGRFTISRDNSKNTLYLQMNSLRAEDTAVYYCARGGVGATYYYYYGMDVWGQGTTVTVSS", "VL": "not shown", "notes": "human antibody from XenoMouse"}}, "key": {"[1]": {"target": "T1, prostate specific membrane antigen (PSMA), full-length human (human, UniProt Q04609 1-750)", "T1 sequence (Q04609 whole entry)": "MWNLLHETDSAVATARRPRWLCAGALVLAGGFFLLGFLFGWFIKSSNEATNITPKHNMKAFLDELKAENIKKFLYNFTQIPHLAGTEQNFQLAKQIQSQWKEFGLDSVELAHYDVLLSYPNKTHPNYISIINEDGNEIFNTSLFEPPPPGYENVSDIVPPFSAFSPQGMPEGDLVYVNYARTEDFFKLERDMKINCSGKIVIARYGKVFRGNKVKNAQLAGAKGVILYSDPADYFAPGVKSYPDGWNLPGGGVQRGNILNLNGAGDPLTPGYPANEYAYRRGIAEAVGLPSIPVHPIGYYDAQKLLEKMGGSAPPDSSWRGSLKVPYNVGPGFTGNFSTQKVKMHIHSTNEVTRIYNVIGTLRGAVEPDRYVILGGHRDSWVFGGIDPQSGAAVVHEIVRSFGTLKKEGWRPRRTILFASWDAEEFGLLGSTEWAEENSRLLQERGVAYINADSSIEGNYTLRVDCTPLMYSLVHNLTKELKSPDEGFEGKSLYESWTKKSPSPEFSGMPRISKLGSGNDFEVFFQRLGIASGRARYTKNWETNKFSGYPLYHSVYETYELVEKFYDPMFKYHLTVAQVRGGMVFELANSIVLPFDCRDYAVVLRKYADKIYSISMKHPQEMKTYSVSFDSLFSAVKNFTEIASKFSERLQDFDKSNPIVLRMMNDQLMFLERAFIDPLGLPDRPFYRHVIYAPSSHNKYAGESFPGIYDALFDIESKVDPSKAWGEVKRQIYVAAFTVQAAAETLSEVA", "assay": "cell-based or functional assay"}, "[2]": {"target": "T1, prostate specific membrane antigen …", "assay": "cell-based or functional assay", "remark": "listed apart in the source"}, "[3]": {"target": "T2, recombinant soluble PSMA (rsPSMA) (human, UniProt Q04609 44-750)", "T2 construct": "Oligomeric state of the preparation not specified in the assay concerned; also called secreted rsPSMA; PSMAECTO", "T2 sequence (Q04609 44-750)": "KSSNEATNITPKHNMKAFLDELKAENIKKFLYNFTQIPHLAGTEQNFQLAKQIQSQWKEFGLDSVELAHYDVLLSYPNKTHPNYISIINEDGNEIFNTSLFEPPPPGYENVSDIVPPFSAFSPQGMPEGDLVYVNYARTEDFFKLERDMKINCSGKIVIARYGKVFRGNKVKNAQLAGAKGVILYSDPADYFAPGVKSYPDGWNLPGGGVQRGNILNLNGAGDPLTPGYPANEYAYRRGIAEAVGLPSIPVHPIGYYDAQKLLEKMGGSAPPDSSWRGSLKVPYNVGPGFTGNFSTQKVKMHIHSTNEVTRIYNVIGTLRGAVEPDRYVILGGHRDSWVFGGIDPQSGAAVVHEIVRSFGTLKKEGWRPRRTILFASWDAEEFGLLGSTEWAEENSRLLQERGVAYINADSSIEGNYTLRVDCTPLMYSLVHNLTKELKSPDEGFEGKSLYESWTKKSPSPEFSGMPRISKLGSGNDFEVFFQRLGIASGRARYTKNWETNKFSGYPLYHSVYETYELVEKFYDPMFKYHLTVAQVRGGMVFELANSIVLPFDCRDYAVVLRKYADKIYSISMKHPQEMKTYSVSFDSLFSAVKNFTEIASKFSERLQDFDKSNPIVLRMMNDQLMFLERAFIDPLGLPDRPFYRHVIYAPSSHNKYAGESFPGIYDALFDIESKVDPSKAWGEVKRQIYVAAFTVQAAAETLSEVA", "assay": "Biacore, mAb captured on anti-human IgG, rsPSMA in flow; crude supernatant", "method": "(§1) To determine the kinetics and affinity of the antibodies, the antibodies in crude supernatants, in purified form and in bifunctional chelate modified forms were analyzed using a Biacore 3000 instrument (Biacore Inc., Piscataway, N.J.). Biacore 3000 is a fully automated surface plasmon resonance (SPR)-based biosensor system that is designed to provide real-time kinetic data from assay formats that require no tags or labeling of compounds for biomolecular interactions. It is ideal for screening crude supernatants.\n(§2) The streptavidin-coated sensor chips (SA chips, Biacore) were used to capture biotinylated anti-human IgG antibody (Sigma, St. Louis, Mo.). The entire sensor chip surface was conditioned with five injections of conditioning solution (1 M NaCl, 50 mM NaOH) and equilibrated with PBS buffer containing 0.005% polysorbate 20. Two to three thousand resonance units (RU) of biotinylated anti-human IgG antibody (Sigma) were immobilized onto the SA chip followed by an injection of regeneration buffer (glycine-HCl, pH 2.2). […] For each antibody at one concentration, the chip was regenerated and equilibrated. […] Thermodynamic and kinetic rate constants of binding were calculated using the Biacore Evaluation software."}, "[4]": {"target": "T2, recombinant soluble PSMA (rsPSMA)", "assay": "Biacore, purified mAb captured, rsPSMA in flow", "method": "as §1, §2"}}, "data": [{"binder": "B1", "values": [{"measurement": "IC50, cell survival (Alamar Blue) of C4-2 and LNCaP cells", "setting": "[1]", "value": "< 1", "unit": "nCi/mL"}, {"measurement": "IC50, cell survival of C4-2 cells by 3H thymidine incorporation", "setting": "[1]", "value": 0.12, "unit": "nCi/mL"}, {"measurement": "selectivity of killing, C4-2 vs PC3", "setting": "[1]", "value": "> 50", "unit": "fold"}]}, {"binder": "B2", "values": [{"measurement": "PSMA+/PSMA- Ratio of tumor uptake, Mean", "setting": "[2]", "value": 4.27}]}, {"binder": "B3", "values": [{"measurement": "PSMA+/PSMA- Ratio of tumor uptake, Mean", "setting": "[2]", "value": 5.55}]}, {"binder": "B4", "values": [{"measurement": "koff", "setting": "[3]", "value": 0.000363, "unit": "s⁻¹"}, {"measurement": "Kd", "setting": "[4]", "value": 0.217, "unit": "nM"}]}]}
